In the nanobody polyreactivity screen of Harvey et al. (2022):

Assay: yeast display, Sf9 membrane polyspecificity reagent, FACS + sequencing; frameworks hold sequencing errors
In short: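 Galactose-induced (36–48 hours) yeast carrying a synthetic nanobody display library were exposed to 10% biotinylated, detergent-solubilized Sf9 membrane reagent at 4 °C for 1 hour. FACS followed streptavidin microbead enrichment, using low and high (top ~1%) gates for expression (anti-HA) and reagent binding (streptavidin). Colony PCR, MiSeq 2 × 250 sequencing and CDR-length filtering followed. Labels for polyreactivity reflect the gate of origin.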
With “QVQLVESGGGLVQAGGSLRLSSAASGSIFYSYAMGWYRQAPGKERELVARMSSGGSTYYADSVKGRFTISRDNAKNSVYLQMNSLKPEDTAVYYCAAEALYYPYETYDYWGQGTQETVSS” the “polyreactivity (PSR sort gate)” value was “high polyreactivity”.
For “QVQLVESGGGLVQAGGSLRLSSAASGSTFDHYAMGWYRQAPGKERELVAAITWSGGRTYYADSVKGRFTISRDNAKNTVYFQMNSLKPEDTAVYYCAARGYQIRVANYKYDSWGQGTQVTVSS”, the “polyreactivity (PSR sort gate)” value was “low polyreactivity”.
In the case of “QVQLVESGGGLVQAGGSLRLSSAASGSTFIRYAMGWYRQAPGKERELVAAISTSGGSTYYADSVKGRFTISRDNAKNTVYLQMNSLKPEDTAVYYCNAVSRSYRYAGVPGFHYDYWGQGTQVTVSS”, the “polyreactivity (PSR sort gate)” value is reported as “high polyreactivity”.
In the case of “QVQLVESGGGLVQAGGSLRLSSAASGSTFKFYAMGWYRQAPGKERELVAAIRYSGGSTYYADSVKGRFTISRDNAKNTVYLQMNSLKPEDTAVYFCATEAQCVTYWFGYWGQGTQVTVSS”, the “polyreactivity (PSR sort gate)” value is reported as “low polyreactivity”.
In the case of “QVQLVESGGGLVQAGGSLRLSSAASGSTFKYYAMGCYRQAPGKERELVAAITNDGSTSYADSVKGRFTISRDNAKNTVYLQMNSLTPEDTAVYYCNARSKYPSYFSSMGYWGQGTQVTVSS”, the “polyreactivity (PSR sort gate)” value is reported as “high polyreactivity”.
For “QVQLVESGGGLVQAGGSLRLSSAASGSTFKYYAMGWYRPDPGKERELVAAIRTSGGRTYYADSVKGRFTISRDNAKNTVDLQMNSLKPEDSAVYFCNARYNQFGQRFDYWGQGSQVTVSS”, the “polyreactivity (PSR sort gate)” value was “high polyreactivity”.
In the case of “QVQLVESGGGLVQAGGSLRLSSAASGSTFPDYDMGWYRQAPGKERELVAAITSSGGITYYADSVKGRFTISRDNAKNTVYLQMNSLKPEDTSVSYCAAYGYGSNYRYTGYYYWGQGTEVTVSS”, the “polyreactivity (PSR sort gate)” value is reported as “low polyreactivity”.
For “QVQLVESGGGLVQAGGSLRLSSAASGSTFPSYAMGWYRQAPGKERELVAAINSGGGTNYADSVKGRFTISRDNAKNTVYLQMNSLKPEDTAVYYCAKSRYDYTKTEGGYWGLGTQVTVSS”, the “polyreactivity (PSR sort gate)” value was “low polyreactivity”.
With “QVQLVESGGGLVQAGGSLRLSSAASGSTFPVNARGCYRQAPGKERELVAAISSRGSSTYYADSVKGRFTISRDNAKNTVYLQMHSLNREDTAVYYCAAQQRFPRFYYWGEGTQVTVSS” the “polyreactivity (PSR sort gate)” value was “high polyreactivity”.
In the case of “QVQLVESGGGLVQAGGSLRLSSAASGSTFPYNAMGWYRQAPGKARELVAAITSRGGSTYYADSVKGRFTISRDNAKNTVYLQMNSLKPEDTAVYYCATPGDTYGWTRRRYYYWGQGTQVTVSS”, the “polyreactivity (PSR sort gate)” value is reported as “high polyreactivity”.
In the case of “QVQLVESGGGLVQAGGSLRLSSAASGSTFQIYTMGWSRQAPGKESELVAAITNGGGSTYYADSVKGRFTISRDNAKNTVYLQMNSLKPEDTAVYYCAAEQRYPLIILYDDWGQGTQVTVSS”, the “polyreactivity (PSR sort gate)” value is reported as “low polyreactivity”.
In the case of “QVQLVESGGGLVQAGGSLRLSSAASGSTFRGNAMGWYRQAPGKERELVAAITGRGGRTYYADSVKGRFTISRDNAKNTVYLQMNSLKPEDTAVYYCAAYSRYKPYGITAYDYWGLGTQVTVSS”, the “polyreactivity (PSR sort gate)” value is reported as “high polyreactivity”.
For “QVQLVESGGGLVQAGGSLRLSSAASGSTFRYYTMGWYRPAPGKERELVADITIGGSTYYADSVKGRFTISRDNAKNTVYLQMNSLKPEDSAVYYCAARSTGGRIFATGVAYDYWGQGTQVTVSS”, the “polyreactivity (PSR sort gate)” value was “low polyreactivity”.
For “QVQLVESGGGLVQAGGSLRLSSAASGSTFTSYAMGWYRQAPGKERELVAAINYSGGSTYYADSVKGRFTISRDNAKNNVYLQMNILKQEDTAVYDCAADGYIRQYVTYYYWGQGTQVTVSS”, the “polyreactivity (PSR sort gate)” value was “low polyreactivity”.
For “QVQLVESGGGLVQAGGSLRLSSAASGSTFTSYAMGWYRQAPGKEREVVSTITGRGGSTSYSDSVKGRFTISRDNAKNTVYLQMNSLKPEDTAVYYCAKRVVVWYFGTGDYWGQGTKVTVSS”, the “polyreactivity (PSR sort gate)” value was “low polyreactivity”.
With “QVQLVESGGGLVQAGGSLRLSSAASGSTFYRYAMGWYRQAPGKERELVAAISRSGGNTFYADSVKGRFTISRDNAKNTVYLQMNSLKPEDTAVYYCAALRSWYGQTSGMDYWGQGTQVTVSS” the “polyreactivity (PSR sort gate)” value was “high polyreactivity”.
In the case of “QVQLVESGGGLVQAGGSLRLSSAASGSTLVIYAMGWYRQAPGIERQLVAAIDANTGSTYYADSVKGRFTISLDNAKNTDYLQMNSLKPEDTAVYYCNAQVYLPTAYDYWGQGTLVTVSS”, the “polyreactivity (PSR sort gate)” value is reported as “low polyreactivity”.
